Sequences and labels used below:
T1: human EphA1 (Homo sapiens, UniProt P21709)
T1 construct: a protein of the extracellular region of each human Eph receptor fused with the SEAP protein and the His tag; made in house; host or cells: Expi293F cells (culture supernatant)
T1 sequence (P21709 26-547 limits assumed): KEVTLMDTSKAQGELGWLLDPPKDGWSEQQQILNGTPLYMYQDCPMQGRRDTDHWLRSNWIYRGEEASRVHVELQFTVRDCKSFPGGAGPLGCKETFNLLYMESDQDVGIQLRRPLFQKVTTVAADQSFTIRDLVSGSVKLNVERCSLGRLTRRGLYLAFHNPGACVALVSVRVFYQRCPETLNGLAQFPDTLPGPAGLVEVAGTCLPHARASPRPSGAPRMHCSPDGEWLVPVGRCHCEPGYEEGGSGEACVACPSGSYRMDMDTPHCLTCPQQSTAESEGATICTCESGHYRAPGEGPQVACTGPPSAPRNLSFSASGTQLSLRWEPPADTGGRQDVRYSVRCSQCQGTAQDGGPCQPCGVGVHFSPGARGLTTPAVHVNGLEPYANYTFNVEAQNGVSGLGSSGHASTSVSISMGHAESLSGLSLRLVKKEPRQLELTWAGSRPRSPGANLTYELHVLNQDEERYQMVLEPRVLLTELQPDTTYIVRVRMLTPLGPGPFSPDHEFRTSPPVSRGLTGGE

T2: human EphA10 (Homo sapiens, UniProt Q5JZY3)
T2 construct: a protein of the extracellular region of each human Eph receptor fused with the SEAP protein and the His tag; made in house; host or cells: Expi293F cells (culture supernatant)
T2 sequence (Q5JZY3 34-565 limits assumed): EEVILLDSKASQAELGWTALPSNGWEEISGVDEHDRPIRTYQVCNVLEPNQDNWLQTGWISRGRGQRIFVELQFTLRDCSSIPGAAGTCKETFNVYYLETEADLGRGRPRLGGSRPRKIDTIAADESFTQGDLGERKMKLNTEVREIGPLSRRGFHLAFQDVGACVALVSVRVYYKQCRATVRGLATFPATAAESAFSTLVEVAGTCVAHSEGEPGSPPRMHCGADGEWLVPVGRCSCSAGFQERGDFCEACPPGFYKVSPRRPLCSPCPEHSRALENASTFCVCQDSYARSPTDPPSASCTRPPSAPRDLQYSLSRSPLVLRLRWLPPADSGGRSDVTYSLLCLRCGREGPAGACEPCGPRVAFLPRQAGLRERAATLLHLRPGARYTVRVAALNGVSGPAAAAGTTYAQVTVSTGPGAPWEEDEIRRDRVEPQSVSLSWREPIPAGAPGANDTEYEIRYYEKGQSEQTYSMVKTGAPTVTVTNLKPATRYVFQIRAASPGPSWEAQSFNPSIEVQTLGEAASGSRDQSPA

T3: human EphA6 (Homo sapiens, UniProt Q9UF33)
T3 construct: a protein of the extracellular region of each human Eph receptor fused with the SEAP protein and the His tag; made in house; host or cells: Expi293F cells (culture supernatant)
T3 sequence (Q9UF33 23-550 limits assumed): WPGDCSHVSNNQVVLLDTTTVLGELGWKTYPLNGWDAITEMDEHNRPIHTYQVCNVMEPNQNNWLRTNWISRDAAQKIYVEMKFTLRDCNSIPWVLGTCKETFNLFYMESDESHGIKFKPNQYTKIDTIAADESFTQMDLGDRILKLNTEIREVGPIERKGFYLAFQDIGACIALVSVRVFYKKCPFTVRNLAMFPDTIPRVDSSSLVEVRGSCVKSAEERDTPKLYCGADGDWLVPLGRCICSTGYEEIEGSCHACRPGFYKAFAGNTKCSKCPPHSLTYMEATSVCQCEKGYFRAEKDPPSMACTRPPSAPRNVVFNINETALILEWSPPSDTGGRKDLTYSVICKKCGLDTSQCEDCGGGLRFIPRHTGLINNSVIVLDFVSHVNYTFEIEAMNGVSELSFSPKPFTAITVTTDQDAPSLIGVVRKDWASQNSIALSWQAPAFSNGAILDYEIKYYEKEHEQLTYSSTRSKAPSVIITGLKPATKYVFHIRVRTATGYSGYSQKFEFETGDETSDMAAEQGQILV

B1: 69 (antibody, V domains shown)
VH: QIQLVQSGSELKKPGASVKVSCKASGYTFTDYSMHWVRQAPGQGLKWMGWINTETGEPTYADDFKGRFVFSLDTSVSTAYLQISSLKAEDTAVYYCARIPLYYYGSRYWYFDVWGQGTTVTVSS
VL: DIQMTQSPSSLSASVGDRVTITCRASENIYRNLAWYQQKPGKAPKLLVYAATNLADGVPSRFSGSGSGTDYTLTISSLQPEDFATYYCQHFWGTPWTFGQGTKVEIK
modifications: synthetic humanized antibody heavy chain variable region sequence; synthetic humanized antibody light chain variable region sequence
B2: 85 (antibody, V domains shown)
VL: B1 VL with V48L, P80S
VH: B1 VH with I2V
modifications: constant regions without entry; synthetic humanized antibody light chain variable region sequence; synthetic humanized antibody heavy chain variable region sequence
B3: 87 (antibody, V domains shown)
VL: B1 VL with K45Q, V48L
VH: B1 VH with I2V, K46E, D62Q, D63G, K65T
modifications: constant regions without entry; synthetic humanized antibody light chain variable region sequence; synthetic humanized antibody heavy chain variable region sequence
B4: 86 (antibody, V domains shown)
VL: B1 VL with V48L, P80S
VH: B1 VH
modifications: constant regions without entry; synthetic humanized antibody light chain variable region sequence; synthetic humanized antibody heavy chain variable region sequence
B5: 82 (antibody, V domains shown)
VL: B1 VL with V48L, P80S
VH: B1 VH with I2V, D62Q, D63G, K65T
modifications: constant regions without entry; synthetic humanized antibody light chain variable region sequence; synthetic humanized antibody heavy chain variable region sequence
B6: 84 (antibody, V domains shown)
VL: B1 VL with V48L, P80S
VH: B1 VH with I2V, K46E
modifications: constant regions without entry; synthetic humanized antibody light chain variable region sequence; synthetic humanized antibody heavy chain variable region sequence
B7: 83 (antibody, V domains shown)
VL: B1 VL with V48L, P80S
VH: B1 VH with D62Q, D63G, K65T
modifications: constant regions without entry; synthetic humanized antibody light chain variable region sequence; synthetic humanized antibody heavy chain variable region sequence
B8: 81 (antibody, V domains shown)
VL: B1 VL with V48L, P80S
VH: B1 VH with I2V, K46E, D62Q, D63G, K65T
modifications: constant regions without entry; synthetic humanized antibody light chain variable region sequence; synthetic humanized antibody heavy chain variable region sequence

Numbering of substitutions follows the chain as printed.

One assay has as its target T1, human EphA1. The assay is described as follows: Selectivity ELISA of humanized antibodies for human Eph receptor. It is filed as binding. The conditions noted are these: coated protein 1 nM. An excerpt: (§1) According to the method described in Example 7, a DNA sequence encoding the signal sequence and the extracellular region of each human Eph receptor (EphA1, EphA2, EphA3, EphA4, EphA5, EphA6, EphA7, EphA8, EphA10, EphB1, EphB2, EphB3, EphB4, and EphB6) was amplified by RT-PCR using tissue-derived total RNA and cloned into a pENTR1A vector (Invitrogen/Life Technologies) having a DNA sequence encoding SEAP protein and histidine tag. Next, the DNA sequence encoding the signal sequence and the extracellular region of each human Eph receptor, SEAP protein, and histidine tag was transferred to a pcDNA3.1_rfcB vector through LR reaction using Gateway System (Invitrogen/Life Technologies) to construct a vector for the expression of a protein of the extracellular region of each human Eph receptor fused with the SEAP protein and the His tag (referred to as “Eph receptor extracellular region-SEAP-His protein”) (this vector is referred to as “Eph receptor extracellular region-SEAP-His protein expression vector”).
(§2) Next, each human Eph receptor extracellular region-SEAP-His protein expression vector was transferred to Expi293F cells (Gibco/Thermo Fisher Scientific) using Expi293 expression system (Gibco/Thermo Fisher Scientific). After incubation (5% CO2, 37° C.) for 5 days, the culture supernatant was recovered and centrifuged at 1500 rpm at room temperature for 5 minutes. The centrifugation supernatant was filtered through a 0.45-μm filter (Merck Millipore).
(§3) Each anti-EphA4 monoclonal humanized antibody obtained in Example 16 was evaluated for its binding activity against each human Eph receptor according to the following steps.
(§4) Each well of a 96-well plate (Nunc) was coated with a rabbit anti-6-His antibody (Bethyl Laboratories). Each well was […] After washing with 0.05% Tween 20/PBS (Nacalai Tesque) three times, the SEAP-His protein of human EphA1, EphA2, EphA3, EphA4, EphA5, EphA6, EphA7, EphA8, EphA10, EphB1, EphB2, EphB3, EphB4, or EphB6 was added (final concentration: 1 nM) to each well and incubated at room temperature for 1 hour. After washing three times, the humanized antibody was added to each well and incubated at room temperature for 1 hour. After washing three times, a horseradish peroxidase-labeled donkey […] IgG antibody (Jackson ImmunoResearch Laboratories) was added thereto and incubated at room temperature for 1 hour. After washing three times, TMB Microwell Peroxidase Substrate System (Kirkegaard & Perry Laboratories (KPL)) was added to each well. After confirmation of moderate color development, an equal amount of a reaction stopping solution (1N H2SO4, Wako Pure Chemical Industries) was added to each well. The absorbance at 450 nm was read using a microplate reader (Thermo Fisher Scientific).
(In general: An ELISA detects its analyte on a solid surface through an enzyme-linked reagent.)
Turning to B1, the “hEphA1-SEAP-: absorbance at 450 nm, percentage with respect to hEphA4-SEAP-His as 100%” value was 5.7%.

On to B2, for which the “hEphA1-SEAP-: absorbance at 450 nm, percentage with respect to hEphA4-SEAP-His as 100%” value came out at 5.0%.

Take B3: the “hEphA1-SEAP-: absorbance at 450 nm, percentage with respect to hEphA4-SEAP-His as 100%” value amounted to 5.3%.

Regarding B4, the “hEphA1-SEAP-: absorbance at 450 nm, percentage with respect to hEphA4-SEAP-His as 100%” value is 5.9%.

In the case of B5, the “hEphA1-SEAP-: absorbance at 450 nm, percentage with respect to hEphA4-SEAP-His as 100%” value stood at 5.4%.

With B6, the “hEphA1-SEAP-: absorbance at 450 nm, percentage with respect to hEphA4-SEAP-His as 100%” value is recorded as 5.2%.

Take B7: the “hEphA1-SEAP-: absorbance at 450 nm, percentage with respect to hEphA4-SEAP-His as 100%” value is reported as 5.7%.

Turning to B8, the “hEphA1-SEAP-: absorbance at 450 nm, percentage with respect to hEphA4-SEAP-His as 100%” value is given as 4.4%.

The target of a further assay is T2, human EphA10. The description is as above. It is filed as binding. Conditions: coated protein 1 nM.
Source text: as §1, §2, §3, §4
On to B1, for which the “hEphA10-SEAP-: absorbance at 450 nm, percentage with respect to hEphA4-SEAP-His as 100%” value is recorded as 5.4%.

For the molecule B2, the “hEphA10-SEAP-: absorbance at 450 nm, percentage with respect to hEphA4-SEAP-His as 100%” value was found to be 5.0%.

Take B3: the “hEphA10-SEAP-: absorbance at 450 nm, percentage with respect to hEphA4-SEAP-His as 100%” value was 5.2%.

For the molecule B4, the “hEphA10-SEAP-: absorbance at 450 nm, percentage with respect to hEphA4-SEAP-His as 100%” value is given as 5.6%.

Take B5: the “hEphA10-SEAP-: absorbance at 450 nm, percentage with respect to hEphA4-SEAP-His as 100%” value was 5.4%.

Turning to B6, the “hEphA10-SEAP-: absorbance at 450 nm, percentage with respect to hEphA4-SEAP-His as 100%” value was 5.1%.

Regarding B7, the “hEphA10-SEAP-: absorbance at 450 nm, percentage with respect to hEphA4-SEAP-His as 100%” value is 5.6%.

Turning to B8, the “hEphA10-SEAP-: absorbance at 450 nm, percentage with respect to hEphA4-SEAP-His as 100%” value is on record as 4.8%.

A further assay concerns the target T3, human EphA6. The assay is described as above. It is filed as binding. The conditions noted are these: coated protein 1 nM.
Source text: as §1, §2, §3, §4
With B1, the “hEphA6-SEAP-: absorbance at 450 nm, percentage with respect to hEphA4-SEAP-His as 100%” value amounted to 9.5%.

B2: the “hEphA6-SEAP-: absorbance at 450 nm, percentage with respect to hEphA4-SEAP-His as 100%” value was 6.2%.

For B3, the “hEphA6-SEAP-: absorbance at 450 nm, percentage with respect to hEphA4-SEAP-His as 100%” value is 6.4%.

In the case of B4, the “hEphA6-SEAP-: absorbance at 450 nm, percentage with respect to hEphA4-SEAP-His as 100%” value is 8.6%.

As for B5, the “hEphA6-SEAP-: absorbance at 450 nm, percentage with respect to hEphA4-SEAP-His as 100%” value is recorded as 8.7%.

Turning to B6, the “hEphA6-SEAP-: absorbance at 450 nm, percentage with respect to hEphA4-SEAP-His as 100%” value is 6.0%.

As to B7, the “hEphA6-SEAP-: absorbance at 450 nm, percentage with respect to hEphA4-SEAP-His as 100%” value is recorded as 7.5%.

With B8, the “hEphA6-SEAP-: absorbance at 450 nm, percentage with respect to hEphA4-SEAP-His as 100%” value is 8.8%.
